Reference: patent US20130273053

Assays:
purified plasma factor B = purified plasma factor B (UniProt P00751)
ST-pro-factor D-His = ST-pro-factor D-His (UniProt P00746)
Chain of ST-pro-factor D-His (P00746 21-253): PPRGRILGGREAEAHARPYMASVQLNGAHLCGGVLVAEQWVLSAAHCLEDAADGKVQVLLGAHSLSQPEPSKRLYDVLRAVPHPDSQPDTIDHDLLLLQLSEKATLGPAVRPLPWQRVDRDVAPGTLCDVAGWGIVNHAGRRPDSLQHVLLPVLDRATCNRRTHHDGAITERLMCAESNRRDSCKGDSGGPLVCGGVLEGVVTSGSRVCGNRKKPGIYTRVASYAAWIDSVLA

Chain of full length recombinant human MASP-3 (active) (chain): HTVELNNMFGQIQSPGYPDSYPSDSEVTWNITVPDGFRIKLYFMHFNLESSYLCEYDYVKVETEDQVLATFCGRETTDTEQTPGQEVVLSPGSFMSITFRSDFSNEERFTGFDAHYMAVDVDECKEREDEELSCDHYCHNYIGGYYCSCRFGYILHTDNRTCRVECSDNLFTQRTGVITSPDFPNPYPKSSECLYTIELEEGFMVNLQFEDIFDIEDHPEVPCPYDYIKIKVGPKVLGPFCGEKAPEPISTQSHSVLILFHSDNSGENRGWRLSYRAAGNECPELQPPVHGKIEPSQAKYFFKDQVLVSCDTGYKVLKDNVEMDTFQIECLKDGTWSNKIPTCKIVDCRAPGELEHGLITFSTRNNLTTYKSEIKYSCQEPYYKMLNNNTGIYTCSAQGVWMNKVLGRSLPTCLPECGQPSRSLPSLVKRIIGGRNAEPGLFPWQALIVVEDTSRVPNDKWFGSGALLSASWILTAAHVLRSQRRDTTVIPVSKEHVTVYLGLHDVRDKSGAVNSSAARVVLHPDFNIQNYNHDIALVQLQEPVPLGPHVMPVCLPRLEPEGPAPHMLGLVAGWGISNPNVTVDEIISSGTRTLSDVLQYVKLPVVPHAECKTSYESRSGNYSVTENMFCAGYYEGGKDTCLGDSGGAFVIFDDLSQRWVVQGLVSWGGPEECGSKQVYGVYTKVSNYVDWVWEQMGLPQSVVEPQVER
Chain of purified plasma factor B (P00751 26-764): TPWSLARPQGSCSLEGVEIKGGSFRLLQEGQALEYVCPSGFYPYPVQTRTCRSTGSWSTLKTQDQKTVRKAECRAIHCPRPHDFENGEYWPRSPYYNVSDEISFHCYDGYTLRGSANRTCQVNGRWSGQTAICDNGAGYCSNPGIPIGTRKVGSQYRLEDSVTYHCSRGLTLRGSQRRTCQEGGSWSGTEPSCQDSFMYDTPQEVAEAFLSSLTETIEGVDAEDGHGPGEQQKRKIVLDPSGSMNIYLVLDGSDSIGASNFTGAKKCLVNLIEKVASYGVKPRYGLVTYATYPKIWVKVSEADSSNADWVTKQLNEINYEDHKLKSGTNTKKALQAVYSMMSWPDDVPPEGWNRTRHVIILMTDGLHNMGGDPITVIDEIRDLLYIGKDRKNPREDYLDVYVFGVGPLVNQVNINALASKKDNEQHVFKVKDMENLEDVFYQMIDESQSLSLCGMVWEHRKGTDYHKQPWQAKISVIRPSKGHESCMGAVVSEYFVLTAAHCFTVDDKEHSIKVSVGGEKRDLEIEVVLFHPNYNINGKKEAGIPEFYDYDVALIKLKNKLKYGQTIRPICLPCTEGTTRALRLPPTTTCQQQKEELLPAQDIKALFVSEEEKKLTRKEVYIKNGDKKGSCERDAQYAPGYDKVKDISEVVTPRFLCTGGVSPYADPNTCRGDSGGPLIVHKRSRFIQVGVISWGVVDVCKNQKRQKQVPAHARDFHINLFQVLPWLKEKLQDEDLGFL

full length recombinant human MASP-3 (active)
factor B cleavage, Coomassie-stained SDS-PAGE, with C3(H2O) (purified plasma factor B): either MASP-3 or pro-factor D are able to mediate factor B cleavage, as long as C3 is present
cleavage of pro-factor D substrate, Western blot (ST-pro-factor D-His): only full length MASP-3 (lane 2) and the MASP-1 CCP1-CCP2-SP) fragment (lane 5) cleaved ST-pro-factor D-His6
cleavage of pro-factor D to factor D, Western blot, no mAb (ST-pro-factor D-His): MASP-3 cleaves approximately 50% of pro-factor D into factor D
